T1: TFAM (UniProt Q00059 43-246)
T1 sequence: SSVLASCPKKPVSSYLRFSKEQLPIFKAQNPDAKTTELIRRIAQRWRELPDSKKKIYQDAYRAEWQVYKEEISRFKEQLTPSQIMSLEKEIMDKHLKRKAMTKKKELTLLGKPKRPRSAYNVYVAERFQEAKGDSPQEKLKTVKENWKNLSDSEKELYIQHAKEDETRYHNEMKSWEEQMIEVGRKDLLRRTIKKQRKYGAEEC

B1: DNAGG (dsDNA)
DNA 1: AAAAAGAACCATTTGGATACATAGGTAT
DNA 2: ATACCTATGTATCCAAATGGTTCTTTTT
B2: DNA2GG (dsDNA)
DNA 1: CTGAAGCCAGTTACCTTTGAAAAAAGAGTTGGTAGCTCTTGATCCAGGAATTCAACCACCGCTGGTAGCGGTGGTTTTTTTATTTGCAAGCAGCAGATTA
DNA 2: TAATCTGCTGCTTGCAAATAAAAAAACCACCGCTACCAGCGGTGGTTGAATTCCTGGATCAAGAGCTACCAACTCTTTTTTCAAAGGTAACTGGCTTCAG
B3: NS2 (dsDNA)
DNA 1: ATCGGAAAGATAATCGAGAATC
DNA 2: GATTCTCGATTATCTTTCCGAT
B4: DNAAA (dsDNA)
DNA 1: AAAAAGAATCATTTGGATATATAGGTAT
DNA 2: ATACCTATATATCCAAATGATTCTTTTT
B5: LSP_B (dsDNA)
DNA 1: AATTGTCAGTGGGGGGTTGATT
DNA 2: AATCAACCCCCCACTGACAATT

Assays:
[1] = target: T1, TFAM; test: EMSA; 500 mM NaCl; apparent Kd; EMSA: 10 mM HEPES pH 8.0, 500 mM NaCl, 2 mM DTT, 130 ug/ml BSA, 5% glycerol, 100 nM DNA, 30 min on ice then 10 min RT; FP: 10 mM HEPES pH 8.0, 150-400 mM NaCl; details: protein: recombinant; tags: His-MBP N-terminal, removed by TEV; label: 5'-Cy3 on strand 1 (EMSA); 6-FAM (FP); blunt
[2] = target: T1, TFAM; test: fluorescence polarization; 150 mM NaCl; EMSA: 10 mM HEPES pH 8.0, 500 mM NaCl, 2 mM DTT, 130 ug/ml BSA, 5% glycerol, 100 nM DNA, 30 min on ice then 10 min RT; FP: 10 mM HEPES pH 8.0, 150-400 mM NaCl; details: protein: recombinant; tags: His-MBP N-terminal, removed by TEV; label: 5'-Cy3 on strand 1 (EMSA); 6-FAM (FP); blunt
[3] = target: T1, TFAM; test: fluorescence polarization; 200 mM NaCl; EMSA: 10 mM HEPES pH 8.0, 500 mM NaCl, 2 mM DTT, 130 ug/ml BSA, 5% glycerol, 100 nM DNA, 30 min on ice then 10 min RT; FP: 10 mM HEPES pH 8.0, 150-400 mM NaCl; details: protein: recombinant; tags: His-MBP N-terminal, removed by TEV; label: 5'-Cy3 on strand 1 (EMSA); 6-FAM (FP); blunt
[4] = target: T1, TFAM; test: fluorescence polarization; 250 mM NaCl; EMSA: 10 mM HEPES pH 8.0, 500 mM NaCl, 2 mM DTT, 130 ug/ml BSA, 5% glycerol, 100 nM DNA, 30 min on ice then 10 min RT; FP: 10 mM HEPES pH 8.0, 150-400 mM NaCl; details: protein: recombinant; tags: His-MBP N-terminal, removed by TEV; label: 5'-Cy3 on strand 1 (EMSA); 6-FAM (FP); blunt
[5] = target: T1, TFAM; test: fluorescence polarization; 300 mM NaCl; EMSA: 10 mM HEPES pH 8.0, 500 mM NaCl, 2 mM DTT, 130 ug/ml BSA, 5% glycerol, 100 nM DNA, 30 min on ice then 10 min RT; FP: 10 mM HEPES pH 8.0, 150-400 mM NaCl; details: protein: recombinant; tags: His-MBP N-terminal, removed by TEV; label: 5'-Cy3 on strand 1 (EMSA); 6-FAM (FP); blunt
[6] = target: T1, TFAM; test: fluorescence polarization; 350 mM NaCl; EMSA: 10 mM HEPES pH 8.0, 500 mM NaCl, 2 mM DTT, 130 ug/ml BSA, 5% glycerol, 100 nM DNA, 30 min on ice then 10 min RT; FP: 10 mM HEPES pH 8.0, 150-400 mM NaCl; details: protein: recombinant; tags: His-MBP N-terminal, removed by TEV; label: 5'-Cy3 on strand 1 (EMSA); 6-FAM (FP); blunt
[7] = target: T1, TFAM; test: EcoRI cleavage protection; 10 mM MgCl2, 50 mM NaCl; EMSA: 10 mM HEPES pH 8.0, 500 mM NaCl, 2 mM DTT, 130 ug/ml BSA, 5% glycerol, 100 nM DNA, 30 min on ice then 10 min RT; FP: 10 mM HEPES pH 8.0, 150-400 mM NaCl; details: protein: recombinant; tags: His-MBP N-terminal, removed by TEV; blunt
[8] = target: T1, TFAM; test: X-ray crystallography; 2.84 A; one TFAM bridges two DNA molecules; EMSA: 10 mM HEPES pH 8.0, 500 mM NaCl, 2 mM DTT, 130 ug/ml BSA, 5% glycerol, 100 nM DNA, 30 min on ice then 10 min RT; FP: 10 mM HEPES pH 8.0, 150-400 mM NaCl; details: protein: recombinant; tags: His-MBP N-terminal, removed by TEV; 2 DNA molecules bridged per TFAM; ends stacked
[9] = target: T1, TFAM; test: X-ray crystallography; 2.7 A; EMSA: 10 mM HEPES pH 8.0, 500 mM NaCl, 2 mM DTT, 130 ug/ml BSA, 5% glycerol, 100 nM DNA, 30 min on ice then 10 min RT; FP: 10 mM HEPES pH 8.0, 150-400 mM NaCl; details: protein: recombinant; tags: His-MBP N-terminal, removed by TEV

Binder | Kd [2] [nM] | Kd [3] [nM] | Kd [4] [nM] | Kd [5] [nM] | Kd [6] [nM] | other results
B1 | 13.5 ± 0.1 | 55.5 ± 6 | 259 ± 48.2 | 1210 ± 113 | 5180 ± 502 | Kd [1]: 86.1 ± 14.3 nM
B2 | – | – | – | – | – | binding result [7]: binds
B3 | – | – | – | – | – | binding result [8]: binds
B4 | 12 ± 1.5 | 79 ± 1.4 | 287 ± 15.7 | 877 ± 38.5 | 3850 ± 425 | –
B5 | – | – | – | – | – | binding result [9]: binds

Source: publication PMC8754647, “A minimal motif for sequence recognition by mitochondrial transcription factor A (TFAM)”
